The test concerns the target CherryPicker DmrA chimeric protein. Put plainly: cell-based or functional assay.

Regarding AcGFP-DmrC fusion protein, the amount of AcGFP-DmrC in microvesicles produced with A/C heterodimerizer (western blot against AcGFP standards) turned out to be 5 ng/µL; the amount of AcGFP-DmrC in microvesicles produced without A/C heterodimerizer (western blot against AcGFP standards) is 0.6 ng/µL; the packaging efficiency of AcGFP-DmrC into microvesicles, +A/C against -A/C turned out to be 8 fold.

Values taken from patent US20150315252A1.
